Experimental data: article PMC2936782 (Cell, 2010)

Legend:
PlexinC1 (Homo sapiens) = PlexinC1 (Homo sapiens) (UniProt O60486); assay: Scatchard analysis; conditions: cited from earlier work
[1] = molecular target: PlexinC1-SemaPSI (Sema domain plus the first PSI domain) (human) (UniProt O60486); assay: ITC
[2] = molecular target: Sema7A, extracellular segment, glycan-trimmed (for crystallization) (human) (UniProt O75326); assay: SEC
[3] = molecular target: Sema7A, extracellular segment, glycan-trimmed (for crystallization) (human) (UniProt O75326); assay: crystal structure
SEC + cross-linking = molecular target: the molecule itself; assay: SEC + cross-linking

**Q.** With Sema7A (from UniProt O75326) as the molecule, how does the Kd (PlexinC1 (Homo sapiens)) read?
**A.** 2.1 nM

**Q.** Which results are given for “Sema7A, entire extracellular segment excluding the GPI anchor (from UniProt O75326 45-648) (ligand)”?
**A.** Kd [1]: 290 nM; dH [1]: -2 kcal/mol

**Q.** Which results are given for “Sema7A, extracellular segment, glycan-trimmed (for crystallization) (from UniProt O75326 45-648) (ligand)”?
**A.** stoichiometry N [2]: 2; stoichiometry N [3]: 2

B1: PlexinC1-ECD (entire extracellular segment) (receptor, human, UniProt O60486 35-944, looked up)
chain: ADEPVWRSEQAIGAIAASQEDGVFVASGSCLDQLDYSLEHSLSRLYRDQAGNCTEPVSLAPPARPRPGSSFSKLLLPYREGAAGLGGLLLTGWTFDRGACEVRPLGNLSRNSLRNGTEVVSCHPQGSTAGVVYRAGRNNRWYLAVAATYVLPEPETASRCNPAASDHDTAIALKDTEGRSLATQELGRLKLCEGAGSLHFVDAFLWNGSIYFPYYPYNYTSGAATGWPSMARIAQSTEVLFQGQASLDCGHGHPDGRRLLLSSSLVEALDVWAGVFSAAAGEGQERRSPTTTALCLFRMSEIQARAKRVSWDFKTAESHCKEGDQPERVQPIASSTLIHSDLTSVYGTVVMNRTVLFLGTGDGQLLKVILGENLTSNCPEVIYEIKEETPVFYKLVPDPVKNIYIYLTAGKEVRRIRVANCNKHKSCSECLTATDPHCGWCHSLQRCTFQGDCVHSENLENWLDISSGAKKCPKIQIIRSSKEKTTVTMVGSFSPRHSKCMVKNVDSSRELCQNKSQPNRTCTCSIPTRATYKDVSVVNVMFSFGSWNLSDRFNFTNCSSLKECPACVETGCAWCKSARRCIHPFTACDPSDYERNQEQCPVAVEKTSGGGRPKENKGNRTNQALQVFYIKSIEPQKVSTLGKSNVIVTGANFTRASNITMILKGTSTCDKDVIQVSHVLNDTHMKFSLPSSRKEMKDVCIQFDGGNCSSVGSLSYIALPHCSLIFPATTWISGGQNITMMGRNFDVIDNLIISHELKGNINVSEYCVATYCGFLAPSLKSSKVRTNVTVKLRVQDTYLDCGTLQYREDPRFTGYRVESEVDTELEVKIQKENDNFNISKKDIEITLFHGENGQLNCSFENITRNQDLTTILCKIKGIKTASTIANSSKKVRVKLGNLELYVEQESVPST
**Q.** Does B1 bind (SEC + cross-linking)?
**A.** binds
